Assay results published in IntAct's records for PubMed 29892012.

B1: Angio-associated migratory cell protein (Homo sapiens), Q13685 (parent)
chain: MESESESGAAADTPPLETLSFHGDEEIIEVVELDPGPPDPDDLAQEMEDVDFEEEEEEEGNEEGWVLEPQEGVVGSMEGPDDSEVTFALHSASVFCVSLDPKTNTLAVTGGEDDKAFVWRLSDGELLFECAGHKDSVTCAGFSHDSTLVATGDMSGLLKVWQVDTKEEVWSFEAGDLEWMEWHPRAPVLLAGTADGNTWMWKVPNGDCKTFQGPNCPATCGRVLPDGKRAVVGYEDGTIRIWDLKQGSPIHVLKGTEGHQGPLTCVAANQDGSLILTGSVDCQAKLVSATTGKVVGVFRPETVASQPSLGEGEESESNSVESLGFCSVMPLAAVGYLDGTLAIYDLATQTLRHQCQHQSGIVQLLWEAGTAVVYTCSLDGIVRLWDARTGRLLTDYRGHTAEILDFALSKDASLVVTTSGDHKAKVFCVQRPDR
partner: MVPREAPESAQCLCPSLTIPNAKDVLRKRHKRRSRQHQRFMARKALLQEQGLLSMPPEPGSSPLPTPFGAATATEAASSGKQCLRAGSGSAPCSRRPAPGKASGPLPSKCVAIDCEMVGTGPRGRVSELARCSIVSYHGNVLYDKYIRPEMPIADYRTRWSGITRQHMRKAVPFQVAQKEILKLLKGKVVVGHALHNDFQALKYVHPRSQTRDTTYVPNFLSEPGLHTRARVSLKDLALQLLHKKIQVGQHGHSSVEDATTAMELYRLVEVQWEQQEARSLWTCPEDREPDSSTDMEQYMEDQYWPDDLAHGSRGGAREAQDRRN
B2: Histone-lysine N-methyltransferase SETD5 (Homo sapiens), Q9C0A6 (parent)
chain: MSIAIPLGVTTSDTSYSDMAAGSDPESVEASPAVNEKSVYSTHNYGTTQRHGCRGLPYATIIPRSDLNGLPSPVEERCGDSPNSEGETVPTWCPCGLSQDGFLLNCDKCRGMSRGKVIRLHRRKQDNISGGDSSATESWDEELSPSTVLYTATQHTPTSITLTVRRTKPKKRKKSPEKGRAAPKTKKIKNSPSEAQNLDENTTEGWENRIRLWTDQYEEAFTNQYSADVQNALEQHLHSSKEFVGKPTILDTINKTELACNNTVIGSQMQLQLGRVTRVQKHRKILRAARDLALDTLIIEYRGKVMLRQQFEVNGHFFKKPYPFVLFYSKFNGVEMCVDARTFGNDARFIRRSCTPNAEVRHMIADGMIHLCIYAVSAITKDAEVTIAFDYEYSNCNYKVDCACHKGNRNCPIQKRNPNATELPLLPPPPSLPTIGAETRRRKARRKELEMEQQNEASEENNDQQSQEVPEKVTVSSDHEEVDNPEEKPEEEKEEVIDDQENLAHSRRTREDRKVEAIMHAFENLEKRKKRRDQPLEQSNSDVEITTTTSETPVGEETKTEAPESEVSNSVSNVTIPSTPQSVGVNTRRSSQAGDIAAEKLVPKPPPAKPSRPRPKSRISRYRTSSAQRLKRQKQANAQQAELSQAALEEGGSNSLVTPTEAGSLDSSGENRPLTGSDPTVVSITGSHVNRAASKYPKTKKYLVTEWLNDKAEKQECPVECPLRITTDPTVLATTLNMLPGLIHSPLICTTPKHYIRFGSPFIPERRRRPLLPDGTFSSCKKRWIKQALEEGMTQTSSVPQETRTQHLYQSNENSSSSSICKDNADLLSPLKKWKSRYLMEQNVTKLLRPLSPVTPPPPNSGSKSPQLATPGSSHPGEEECRNGYSLMFSPVTSLTTASRCNTPLQFELCHRKDLDLAKVGYLDSNTNSCADRPSLLNSGHSDLAPHPSLGPTSETGFPSRSGDGHQTLVRNSDQAFRTEFNLMYAYSPLNAMPRADGLYRGSPLVGDRKPLHLDGGYCSPAEGFSSRYEHGLMKDLSRGSLSPGGERACEGVPSAPQNPPQRKKVSLLEYRKRKQEAKENSAGGGGDSAQSKSKSAGAGQGSSNSVSDTGAHGVQGSSARTPSSPHKKFSPSHSSMSHLEAVSPSDSRGTSSSHCRPQENISSRWMVPTSVERLREGGSIPKVLRSSVRVAQKGEPSPTWESNITEKDSDPADGEGPETLSSALSKGATVYSPSRYSYQLLQCDSPRTESQSLLQQSSSPFRGHPTQSPGYSYRTTALRPGNPPSHGSSESSLSSTSYSSPAHPVSTDSLAPFTGTPGYFSSQPHSGNSTGSNLPRRSCPSSAASPTLQGPSDSPTSDSVSQSSTGTLSSTSFPQNSRSSLPSDLRTISLPSAGQSAVYQASRVSAVSNSQHYPHRGSGGVHQYRLQPLQGSGVKTQTGLS
partner: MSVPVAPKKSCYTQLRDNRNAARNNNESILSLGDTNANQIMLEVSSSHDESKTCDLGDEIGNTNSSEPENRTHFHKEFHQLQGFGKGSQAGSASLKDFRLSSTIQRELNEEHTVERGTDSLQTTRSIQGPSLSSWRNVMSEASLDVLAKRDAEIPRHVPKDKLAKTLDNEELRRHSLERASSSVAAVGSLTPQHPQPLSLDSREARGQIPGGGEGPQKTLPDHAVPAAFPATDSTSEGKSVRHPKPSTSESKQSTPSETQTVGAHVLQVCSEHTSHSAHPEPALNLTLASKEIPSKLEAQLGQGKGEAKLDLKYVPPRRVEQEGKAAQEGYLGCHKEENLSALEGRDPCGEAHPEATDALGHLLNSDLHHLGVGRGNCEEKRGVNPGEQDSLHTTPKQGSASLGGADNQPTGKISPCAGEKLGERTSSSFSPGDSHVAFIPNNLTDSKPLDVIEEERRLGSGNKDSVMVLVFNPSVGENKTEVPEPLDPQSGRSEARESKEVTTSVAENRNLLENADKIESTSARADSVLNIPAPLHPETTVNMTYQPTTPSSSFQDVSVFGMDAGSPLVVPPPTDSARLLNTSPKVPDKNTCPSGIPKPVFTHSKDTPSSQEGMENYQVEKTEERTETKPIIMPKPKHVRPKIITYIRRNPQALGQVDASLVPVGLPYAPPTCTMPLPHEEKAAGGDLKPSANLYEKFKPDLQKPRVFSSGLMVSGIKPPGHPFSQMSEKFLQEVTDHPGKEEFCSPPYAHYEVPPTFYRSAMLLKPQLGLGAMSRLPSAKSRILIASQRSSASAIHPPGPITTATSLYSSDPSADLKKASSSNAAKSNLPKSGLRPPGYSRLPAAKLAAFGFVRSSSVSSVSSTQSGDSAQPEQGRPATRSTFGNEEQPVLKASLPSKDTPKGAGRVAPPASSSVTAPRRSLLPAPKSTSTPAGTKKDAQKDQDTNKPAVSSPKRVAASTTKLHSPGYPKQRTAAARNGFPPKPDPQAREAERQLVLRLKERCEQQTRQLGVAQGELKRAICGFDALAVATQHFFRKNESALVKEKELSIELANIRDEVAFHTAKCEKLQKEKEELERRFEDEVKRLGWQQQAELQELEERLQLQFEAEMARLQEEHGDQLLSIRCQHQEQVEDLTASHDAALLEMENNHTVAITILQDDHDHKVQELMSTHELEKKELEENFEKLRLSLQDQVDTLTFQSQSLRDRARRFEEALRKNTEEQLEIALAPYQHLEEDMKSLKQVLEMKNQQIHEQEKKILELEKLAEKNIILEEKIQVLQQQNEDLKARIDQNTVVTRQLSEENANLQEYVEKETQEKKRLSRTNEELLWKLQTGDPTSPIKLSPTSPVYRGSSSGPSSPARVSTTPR
B3: Acetylcholine receptor subunit gamma (Homo sapiens), P07510 (parent)
chain: MHGGQGPLLLLLLLAVCLGAQGRNQEERLLADLMQNYDPNLRPAERDSDVVNVSLKLTLTNLISLNEREEALTTNVWIEMQWCDYRLRWDPRDYEGLWVLRVPSTMVWRPDIVLENNVDGVFEVALYCNVLVSPDGCIYWLPPAIFRSACSISVTYFPFDWQNCSLIFQSQTYSTNEIDLQLSQEDGQTIEWIFIDPEAFTENGEWAIQHRPAKMLLDPAAPAQEAGHQKVVFYLLIQRKPLFYVINIIAPCVLISSVAILIHFLPAKAGGQKCTVAINVLLAQTVFLFLVAKKVPETSQAVPLISKYLTFLLVVTILIVVNAVVVLNVSLRSPHTHSMARGVRKVFLRLLPQLLRMHVRPLAPAAVQDTQSRLQNGSSGWSITTGEEVALCLPRSELLFQQWQRQGLVAAALEKLEKGPELGLSQFCGSLKQAAPAIQACVEACNLIACARHQQSHFDNGNEEWFLVGRVLDRVCFLAMLSLFICGTAGIFLMAHYNRVPALPFPGDPRPYLPSPD

Variants of: B1
Conditions: with aen_human AEN

effect of a mutation on the interaction | Variant
with no effect | I343F

Variants of: B2
Conditions: with mtus2_human MTUS2, Q5JR59

effect of a mutation on the interaction | Variant
with no effect | G669R

Variants of: B3
Conditions: with kr108_human KRTAP10-8, P60410
Sequence of kr108_human KRTAP10-8, P60410 (P60410 whole entry): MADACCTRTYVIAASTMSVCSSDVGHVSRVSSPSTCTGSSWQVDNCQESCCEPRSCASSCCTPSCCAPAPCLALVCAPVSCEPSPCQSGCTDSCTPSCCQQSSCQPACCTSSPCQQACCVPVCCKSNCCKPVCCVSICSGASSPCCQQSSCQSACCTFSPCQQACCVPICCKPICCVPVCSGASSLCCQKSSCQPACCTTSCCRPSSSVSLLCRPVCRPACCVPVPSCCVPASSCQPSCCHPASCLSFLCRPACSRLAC

effect of a mutation on the interaction | Variant
with no effect | I448T

Variants of: B3
Conditions: with kr103_human KRTAP10-3, P60369
Sequence of kr103_human KRTAP10-3, P60369 (P60369 whole entry): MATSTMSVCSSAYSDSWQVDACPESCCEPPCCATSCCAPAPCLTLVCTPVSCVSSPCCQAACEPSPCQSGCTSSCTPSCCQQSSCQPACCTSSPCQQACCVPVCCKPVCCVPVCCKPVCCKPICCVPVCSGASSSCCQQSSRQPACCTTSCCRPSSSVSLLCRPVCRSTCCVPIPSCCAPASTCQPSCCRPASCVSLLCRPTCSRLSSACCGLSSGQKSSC

effect of a mutation on the interaction | Variant
with no effect | I448T

Variants of: B3
Conditions: with k1h1_human KRT31, Q15323
Sequence of k1h1_human KRT31, Q15323 (Q15323 whole entry): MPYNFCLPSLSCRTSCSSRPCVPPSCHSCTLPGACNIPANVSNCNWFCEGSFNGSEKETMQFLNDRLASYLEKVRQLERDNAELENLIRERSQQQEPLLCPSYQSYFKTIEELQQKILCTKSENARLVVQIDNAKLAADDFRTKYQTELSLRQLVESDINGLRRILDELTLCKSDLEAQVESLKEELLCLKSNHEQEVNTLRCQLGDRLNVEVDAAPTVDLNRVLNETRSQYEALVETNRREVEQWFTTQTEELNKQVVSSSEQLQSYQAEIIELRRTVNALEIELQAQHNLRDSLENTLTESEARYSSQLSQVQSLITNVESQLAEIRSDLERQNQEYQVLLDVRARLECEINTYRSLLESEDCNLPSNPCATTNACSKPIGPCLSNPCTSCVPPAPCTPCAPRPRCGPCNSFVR

effect of a mutation on the interaction | Variant
with no effect | I448T

Variants of: B3
Conditions: with nt2na_human NOTCH2NLA

effect of a mutation on the interaction | Variant
with no effect | I448T
